In the DeepSol protein solubility set:

Test: soluble on expression in E. coli; label from the status in PepcDB or PDB records

Sequence | soluble on expression in E. coli
MRSTELIVERGPSRNEAHSMVNESPSNQPQEQFSLEPKWKTAAAPSCESSSEEAAYPKGNEEEEHNEARPRALCRLTDVSTDHYAKNPDSEEEDAQDEAEGDGSHVGAIPAEAATTARPHDLHKAKKKRSNHAKETKAAETLEKPAAPRKKKPMYKVNIGNVERHPPVPEGVNTPRSVMLCKECGVNPSELARYDRKHFQGAGVSDEVAELRYQSYEKRRCARMAQLKPAYKESIKYDLEDPVSVPAAKRKAQAAEEAPARPAAAAQAAAPPPKLLDEEAQMQRQFEAQHQRLLEQERRKTVTSGYDSDGRRRSPPRAGHFYGASVRSVGSAKSPGRYSRNTSVGARPTVDQPYSAAKIYSASIVESRPLTQSEVIMIDEINEREAHRIDTQERAFVIQENKQLMHVERELIRERLACVRVQKNAEDREKMQQKMHKRNEARQNVVAKRRKKLEAERQARIQDSVAEKAARCHTTNPYASLMLRQMSGFSTCHTSSSFPSQGADVSASREQSSEAE | soluble
MDIDMNYPSITTLMSNESANLLIIWGNATPDISYLSYTTNPMLGDYVLNVSAINGCTEELIATHLVPTLENATQWVYDAGEYWDNYSFTDESTPLPGLSWPFNE | not soluble
MFDRLKNGEKIAPIVKEVESQITEVHKRADEVIESNQFRVLESFGKHKISDSHFIPTTGYGYDDIGRDTLEKVYADVFGAEAGLVRPQIISGTHAISTALFGILRPGDELLYITGKPYDTLEEIVGVRGKGVGSFKEYNIGYNAVPLTEGGLVDFEAVAAAIHSNTKMIGIQRSKGYATRPSFTISQIKEMIAFVKEIKPDVVVFVDNCYGEFIEEQEPCHVGADLMAGSLIKNPGGGIVKTGGYIVGKEQYVEACAYRLTSPGIGAEAGASLYSLQEMYQGFFLAPHVAGQALKGAIFTAAFLEKLGMNTSPAWNAPRTDLIQSVQFDDKDRMIAFCQAIQYASPINSHFTPYANYMPGYEDDVIMAAGTFIQGASIELSADGPIRPPYVAYVQGGLTYSHVKIAICSAIDELIEKNLLTISLEHHHHHH | soluble
MLFATSGSGSMLQSWNLKTSKRTGSFDAKSSINAVAISPDGNTLATGIRDNAIKLWNINDGKLIHTLTGHQGQVRTVAFSPDGTLLASGSSDGTVKLWNATTGKEINTFTAHKEQVWSVAFNPDGKTLASTGQDGSVKIWGVSPQLEHHHHHH | soluble
SNATAFVPALVASGLPNEKFCFEGFLPQKKGRMTKLKSLVDEHRTMVFYESPHRLLKTLTQFAEYFGPERQVSVSREISKIHEETVRGTLSELIEHFTATDPRGEIVIVLAGIDD | soluble
MSLVENLSLEPQPKRRKIDPEVKESPSRNCSHWFVRNKVCASCNTIVDNYQGRSFDYLYTGIQMSNEALGFTKRLISQTSWLEDKKLHLVLDLDHTLVHTIKVSQLSESEKYITEEVESRKDLRRFNTGFPEESLIKLRSFVHQFLKECNEMFSLYVYTKGGYDYAQLVLEMIDPDKIYFGNRVITRRESPGFKTLDLVLADERGIVVVDDKSSVWPHDKKNLLQIARYKYFGDQSCLLSECKKKIDESDEKGPLNTALRFLMDVHEEFFCDWSRKDLDSVDVRPLLKEISLRWKRKADGVV | soluble
MSLDEGRTPILGEHPRPTMVRDNCTMLNGWWDYAIVSIPEDETAPKWRKTAAMLTRDEAVRAVKETAIPQTFDGKILVPFSPESALSGVHQTIYPDNLLWYRTVVHPVTLGGEETVRQIGDANRLILHFEAVDYVCACYVNGQLAGTHVGGYLPFDVDISAFIDPDDAFEIALCVYDPNDSGTQLRGKQKIEREGIWYTAQSGIWQSVWLEIVPEAYLRTLTLKGASDGKLFVRAEIGGDKPNAKLHIVVTDPADGTVVADETLPAGVRKVRAEIATAAEHLWSPADPYLYDVRAELRYGSAKPAETAGDAAVVQSQPMDVVSSYCAFRSVEIKPDTKGVARFHLNGKPLFVKGVLDQGYWPDGLMTAPDDEALTHDITAMKNAGFNMLRKHIKIESARWYYHCDRLGMLVWQDAVSGGGTDGEYNAWTTNRKPTLIRSTWNKFRDDTAKHFTALGADDPIYRRDWSRTCDAMVHMLGGHPSIVTWTLFNEGWGQFDACDATERIHALDPTRPIDATSGWYDQHCGDYHSVHNYFRPLEIYPDKGPLRGYVAEFEKKHRRRRRAAHYVVLPVARHGVRAFVISEFGGLAQLVPEHAAVSRAYGYGEYDSIDDWRAAVRSVLASAAALESRGLAGYVYTQVSDVEEELNGLLTYDRRVDKFAEEGHHHHHH | not soluble
LREQPQQNECQLERLDALEPDNRIESEGGLIETWNPNNKQFRCAGVALSRATLQRNALRRPYYSNAPQEIFIQQGNGYFGMVFPGCPETFEEPQESEQGEGRRYRDRHQKVNRFREGDIIAVPTGIVFWMYNDQDTPVIAVSLTDIRSSNNQLDQMPRRFYLAGNHEQEFLQYQHQQGGKQEQENEGNNIFSGFKRDFLEDAFNVNRHIVDRLQGRNEDEEKGAIVKVKGGLSIISPPEKQARHQRGSRQEEDEDEEKQPRHQRGSRQEEEEDEDEERQPRHQRRRGEEEEEDKKERGGSQKGKSRRQGDNGLEETVCTAKLRLNIGPSSSPDIYNPEAGRIKTVTSLDLPVLRWLKLSAEHGSLHKNAMFVPHYNLNANSIIYALKGRARLQVVNCNGNTVFDGELEAGRALTVPQNYAVAAKSLSDRFSYVAFKTNDRAGIARLAGTSSVINNLPLDVVAATFNLQRNEARQLKSNNPFKFLVPARESENRASA | soluble
VSGTRPAARRTNLTAAQNVVRSVDAEERIAWVSKALCRTTDPDELFVRGAAQRKAAVICRHCPVMQECAADALDNKVEFGVWGGMTERQRRALLKQHPEVVSWSDYLEKRKRRTGTAG | soluble
MENTEKLKNSKEVIAYIAECFPNCFTLEGEAKPLKIGIFQDLADRLNDDPKVSKTQLRAALRQYTSSWRYLHGVKPGATRVDLDGNPCGELEEQHVEHAQAALAESKARVEARRKEQVKKVREEAKANKPKAKKPQQARRPQNAPKVEKKPVETRALAASELNVGNQVNVNMGKGNMAATIVEVNKEDVRVQLANGLQMVVKAEHLRA | not soluble
MGSDKIHHHHHHMRERAAVPPRAVQHSDDVAMVLRMDQPDFIQITDDAVSRDDCAAIVQRMRDSQQLQPGRIGSGVFPDLKHSRDLRISGLADWAAVENRLQQAVFEGLLRYLRQYPQALISPLMLQVTTADGTPHRLVAEDIAQMSDAALSDLARTCLRPGAINLQWYLADQGGYPYWHCELYPRDAGAETLHRHLLWTLYLNEEFEQGETEFLFQQRKARPRTGSLLIAPTAFTHTHRGNRPVGGDKFIATSWILFQSAQALYGGE | not soluble
MGSDKIHHHHHHMHIAIMSRNKNLYSTSRLKEAAEARGHVIKIVDPLKCYMNINMNAPSIHVRGEELPKFDAVIPRIGASVTFYGTAVLRQFEMMGTHPLNESVAITRSRDKLRSLQLLSRKNIGLPVTGFASKPADIPDLLDMVGGAPCVIKLLEGTQGIGVVLAETRKAAESVIEAFMGLKANIMVQEYIAEAGGADIRCFVIGDKVIAAMKRQALPGEFRSNLHRGGSASIVKLTPEERSTALRAAKTMGLNVAGVDILRSKHGPLVMEVNSSPGLEGIEKATGIDVAEKIIQFIEKNVKSTSSKTKGVG | not soluble
MAGVAEFNDKGELLLPKNYREWVMVGTQVTPNELNDGKAPFTEIRTVYVDPESYAHWKKTGEFRDGTVTVKELVSVGDRKGPGSGNGYFMGDYIGLEASVKDSQRFANEPGNWAFYIFYVPDTPLVAAAKNLPTAECAACHKENAKTDMVFTQFYPVLRAAKATGESGVVAPKKLAAALEHHHHHH | soluble
MGSDKIHHHHHHMVIQMKFFNREKEIHEILSILEGEPNIIYFIYGPLNSGKTALIKHIIENKLSDDYKVFYINFRTYLISEKREFIEAIFTTKKDDFFEKIKDKSEVLNLITKGAKILTGIPIPEVEFDKLFEEKINDAFQYLNSILLEVKKSGKQPVLILDELQMIKDVVLNWQKYLLKELFQFLVSLTKEQHLCHVFCLSSDSLFIEYVYSAGELEGRAKYLLVDDFDKETALKFMDFLAKEILNKKLSDEDKELIYNYVGGKPVYIYSVIDEMRYRKLEDILNLMLKEETQKLKYFLKELDYIKPKVELKDEIIEIKKDDIINALKLFKENYEVSDDDIPEPVYIYLVKKNILFLNPIEGILKPQSFLIWNAIKKLLNGH | not soluble
MRRAILWFVALAIASVLAQQSRPASDPQVVEAARKEGRLIIYSSTDQSSAQALLDDFRKLYPFIQIEYNDLGTQAIYDRFVSETAAGASSADLLWSSAMELQVKLASEGYALPYDSPEAKNWPANARLGNLAYSTTLEPAVVVYNKRFLKPEEVPTTREGLARLLQEPRMRGRVATWDPERSAVGFTILKADYDRFPAFQELARAFGKAQAALYSSTGAAFEKVISGEHYLAYGFFGSYALLRQRTVKDLGIAYLTDGTVAIQRVAFINKRAAHPNAAKLFLDYLLSLRGQNLMAYTALIFARRETVVGEATPQALYKAVGGKDKVYAIPVSTEILKNLDPAERMRFLTFWRQAVRGQ | soluble
VSIKKSSGLNFDNTAIAINAGKGLEFDTNTSESPDINPIKTKIGSGIDYNENGAMITKLGAGLSFDNSGAITIGNKNDDKGSGYIPEAPRDGQAYVRKDGEWVLLSTFL | soluble
MSLKKILLLLANGFEAVEASVFTDVLGWNMLEGDGSTLVVTAGMHDKIKCTWNFTVLPEIKIKNVNVDDFEALVIPGGFEEAGFFIDAYSNSFLDLIRTFNAKGKIIASVCVGALSIGKSGILKGRTATTYNLNDRKRQYELSKFGVKILENQPIVIDKNVITSYNPSTAFNVAFTLLEMLTSTENCTKVKKLMGFIEGHHHHHH | soluble
MKAYAKKRISYMPSSPSQNVINFEEIETQKENILPLKEGRSAAALSKAIHQPLVEINQVKSSFEQRLIDELPALSDPITLYLEYIKWLNNAYPQGGNSKQSGMLTLLERCLSHLKDLERYRNDVRFLKIWFWYIELFTRNSFMESRDIFMYMLRNGIGSELASFYEEFTNLLIQKEKFQYAVKILQLGIKNKARPNKVLEDRLNHLLRELGENNIQLGNEISMDSLESTVLGKTRSEFVNRLELANQNGTSSDVNLTKNNVFVDGEESDVELFETPNRGVYRDGWENFDLKAERNKENNLRISLLEANTNLGELKQHEMLSQKKRPYDEKLPIFRDSIGRSDPVYQMINTKDQKPEKIDCNFKLIYCEDEESKGGRLEFSLEEVLAISRNVYKRVRTNRKHPREANLGQEESANQKEAEAQSKRPKISRKALVSKSLTPSNQGRMFSGEEYINCPMTPKGRSTETSDIISAVKPRQLTPILEMRESNSFSQSKNSEIISDDDKSSSSFISYPPQR | soluble
MAHHHHHHMRVIIQRVKNAALSVIKEESKETEKQLELFSEIKNGIICFVGIHKNDTWKDAMYIIRKCLNLRLWSDGNKSWDKSVKDLNYEILFVSQFTLFANTKKGNKPDFHLAKEPKEALAMYNKMVEQFAKDYNHEKIKTGKFGCYMNIQVTNDGPVTIFIDSHDVNLDN | not soluble
MGSDKIHHHHHHMRNVKIDEVDRLDRDVVALGNDYAQGFILPPHQHRRAQLLYGATGLMYVTTQDGEWVVPPQHAVWIPPETVHAVRFAGVTTRSLYIEPDCVAAFIKHRRCEVISVSPLLRQLLLEAVDLPPLYDSPRDRALIQLMLLELAAMPVREFDIPLPQHPALLALCQAFLLNPSIHDPAARWARALFMSPSTFRRHFLKQLGLSFSAWRQRACVVSALAWLIAGKPVNEVALSLGYDNASSFATMFRRVTGQPPSFYHPA | not soluble
MVHMSWFRRRRKSFFDLLEDIFREFEEEFRELEEEFEKLASRVQSRGEEFGKGPYIYGVRITIGPDGVPKVEEFGNIRMARGRPQIREEMEPLVDVIERDDEVWIVADIPGANKDKIKVRATEDKVVIKAENGKKYYKEVELPAKVDPKSAKASYRNGVLEIKLKKIKPAEEGTEVKVE | soluble
